Results: PMC3360035 (PLoS ONE, 2012)

Biological target: Human γD-crystallin I90F (human, UniProt P07320 1-174, I90F)
Assay: cell-based or functional assay

- suppression of aggregation on dilution out of 5 M GdnHCl (from maximum A350), αB in 5-fold molar excess: 70%
B1: αB-crystallin, wild type (natural protein, UniProt P02511 1-175, looked up)
chain: MDIAIHHPWIRRPFFPFHSPSRLFDQFFGEHLLESDLFPTSTSLSPFYLRPPSFLRAPSWFDTGLSEMRLEKDRFSVNLDVKHFSPEELKVKVLGDVIEVHGKHEERQDEHGFISREFHRKYRIPADVDPLTITSSLSSDGVLTVNGPRKQVSGPERTIPITREEKPAVTAAPKK
